Measurements taken from PMC12273574, “Biochemical and structural characterization of a GNAT superfamily protein acetyltransferase from Helicobacter pylori” (The Journal of Biological Chemistry, 2025).

Target: DNA processing protein A (DprA) from Helicobacter pylori strain J99 (Helicobacter pylori strain J99) (UniProt B5ZAA1)
Test: SPR; Biacore 3000; DprA immobilised on a CM5 chip (~500 RU), HP0935 passed over at varying concentrations; 50 mM Tris-Cl pH 7.4, 25 °C, 20 μl/min, 300 s dissociation; Langmuir binding fit

Kd: 3.28 µM
Substance: HP0935, N-acetyltransferase domain-containing protein (GNAT superfamily protein acetyltransferase) from Helicobacter pylori strain 26695 (from UniProt O25589 2-161) (enzyme)
